We go through three molecules from US20180215825A1 (BEIGENE, published 2018).

Substitutions are numbered along the chain they refer to.

T1: human FcγRIIB expressed on HEK293 cells (human, UniProt P31994 43-310)
T1 construct: whole, on cells
T1 sequence (looked up): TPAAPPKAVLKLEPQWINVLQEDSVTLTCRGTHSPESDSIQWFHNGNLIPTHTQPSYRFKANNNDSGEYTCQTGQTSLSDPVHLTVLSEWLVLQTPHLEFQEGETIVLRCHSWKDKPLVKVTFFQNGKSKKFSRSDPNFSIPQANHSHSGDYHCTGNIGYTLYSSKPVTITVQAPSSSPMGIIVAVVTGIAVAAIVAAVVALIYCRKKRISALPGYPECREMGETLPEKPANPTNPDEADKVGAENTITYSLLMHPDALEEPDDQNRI

T2: human FcγRIIAH131 expressed on HEK293 cells (human, UniProt P12318 34-317)
T2 construct: whole, on cells
T2 sequence (looked up): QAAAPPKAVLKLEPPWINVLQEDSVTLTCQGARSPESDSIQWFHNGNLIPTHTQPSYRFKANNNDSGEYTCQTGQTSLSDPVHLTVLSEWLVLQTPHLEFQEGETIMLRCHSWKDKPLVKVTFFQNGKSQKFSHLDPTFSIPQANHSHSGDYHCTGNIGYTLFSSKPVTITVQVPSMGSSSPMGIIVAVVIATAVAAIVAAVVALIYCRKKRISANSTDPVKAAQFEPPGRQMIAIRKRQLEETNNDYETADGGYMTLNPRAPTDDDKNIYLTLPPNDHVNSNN

T3: human FcγRIIAR131 expressed on HEK293 cells (human, UniProt P12318 34-317)
T3 construct: whole, on cells
T3 sequence (looked up): T2 sequence (looked up) with H134R

B1: hu333-4B2-IgG1mc (antibody)
heavy: EVQLVESGGGLVQPGGSLRLSCAVSGFSLTSYGVHWVRQAPGKGLEWVAVIWAGGSTNYADSVKGRFTISKDTSKNTVYLQMNSLRAEDTAVYYCAKPYGTSAMDYWGQGTLVTVSSASTKGPSVFPLAPSSKSTSGGTAALGCLVKDYFPEPVTVSWNSGALTSGVHTFPAVLQSSGLYSLSSVVTVPSSSLGTQTYICNVNHKPSNTKVDKKVEPKSCDKTHTCPPCPAPPAAAPSVFLFPPKPKDTLMISRTPEVTCVVVDVSHEDPEVKFNWYVDGVEVHNAKTKPREEQYNSTYRVVSVLTVLHQDWLNGKEYKCKVSNKALAAPIEKTISKAKGQPREPQVYTLPPSRDELTKNQVSLTCLVKGFYPSDIAVEWESNGQPENNYKTTPPVLDSDGSFFLYSKLTVDKSRWQQGNVFSCSVMHEALHNHYTQKSLSLSPGK
light: DIQMTQSPSSLSASVGDRVTITCKASQDVGIVVAWYQQKPGKAPKLLIYWASIRHTGVPSRFSGSGSGTEFTLTISSLQPDDFATYYCQQYSNYPLYTFGQGTKVEIKRTVAAPSVFIFPPSDEQLKSGTASVVCLLNNFYPREAKVQWKVDNALQSGNSQESVTEQDSKDSTYSLSSTLTLSKADYEKHKVYACEVTHQGLSSPVTKSFNRGEC
B2: hu333-4A2-IgG1mc (antibody)
heavy: B1 heavy with A60V, T73N, S74A
light: B1 light
B3: hu333-4B2-IgG1mf (antibody)
heavy: B1 heavy with A236G
light: B1 light

T9 sequence (P12314 16-374): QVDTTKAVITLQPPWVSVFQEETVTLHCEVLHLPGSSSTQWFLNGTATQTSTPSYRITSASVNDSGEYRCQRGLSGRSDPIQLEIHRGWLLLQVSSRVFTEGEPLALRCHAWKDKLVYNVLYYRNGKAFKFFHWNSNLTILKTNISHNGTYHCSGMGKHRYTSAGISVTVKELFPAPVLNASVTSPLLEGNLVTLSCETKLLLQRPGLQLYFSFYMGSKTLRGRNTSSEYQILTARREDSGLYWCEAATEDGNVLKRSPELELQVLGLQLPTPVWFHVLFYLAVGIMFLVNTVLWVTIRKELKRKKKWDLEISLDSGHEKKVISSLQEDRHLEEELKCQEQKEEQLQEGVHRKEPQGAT
T8 sequence (P08637 17-254): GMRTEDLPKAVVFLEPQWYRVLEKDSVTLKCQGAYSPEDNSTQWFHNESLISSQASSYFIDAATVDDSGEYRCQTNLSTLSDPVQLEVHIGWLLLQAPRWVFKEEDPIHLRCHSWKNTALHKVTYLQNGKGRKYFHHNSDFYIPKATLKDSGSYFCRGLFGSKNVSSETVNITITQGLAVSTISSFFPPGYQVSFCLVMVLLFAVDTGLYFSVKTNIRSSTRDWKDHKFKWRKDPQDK

The target in one assay is T4, human PD-L1, full length, expressed on cells (human, UniProt Q9NZQ7 19-290).
T4 construct: also called HEK293/PD-L1 cells; HEK293/OS8/PD-L1 cells
T4 sequence (Q9NZQ7 19-290 limits assumed): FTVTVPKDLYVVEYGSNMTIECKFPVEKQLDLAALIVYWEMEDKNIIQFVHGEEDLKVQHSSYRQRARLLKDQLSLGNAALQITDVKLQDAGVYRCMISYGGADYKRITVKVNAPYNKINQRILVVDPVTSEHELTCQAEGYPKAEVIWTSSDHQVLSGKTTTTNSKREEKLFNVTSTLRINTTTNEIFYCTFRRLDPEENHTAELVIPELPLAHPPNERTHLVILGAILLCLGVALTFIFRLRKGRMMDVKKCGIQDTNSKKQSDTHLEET
In words: FACS competition with PD-1/Fc on HEK293/PD-L1 cells.
As to B1, the half-maximal inhibitory concentration (IC50) was 0.167 µg/mL and the Max inhibition turned out to be 100%.
The corresponding values for B2 are 0.172 µg/mL and 100%.
Consider B3, for which the half-inhibitory concentration (IC50) amounted to 0.174 µg/mL and the Max inhibition is 100%.

In another assay the target is T5, cynomolgus monkey PD-L1/His (cynomolgus monkey (Macaca fascicularis), UniProt G7PSE7 19-238).
T5 construct: extracellular domain; Said to be expressed and purified in a similar way to the human PD-L1/His (PD-L1-ECD/His); not shown: His tag
T5 sequence (G7PSE7 entry or part of it): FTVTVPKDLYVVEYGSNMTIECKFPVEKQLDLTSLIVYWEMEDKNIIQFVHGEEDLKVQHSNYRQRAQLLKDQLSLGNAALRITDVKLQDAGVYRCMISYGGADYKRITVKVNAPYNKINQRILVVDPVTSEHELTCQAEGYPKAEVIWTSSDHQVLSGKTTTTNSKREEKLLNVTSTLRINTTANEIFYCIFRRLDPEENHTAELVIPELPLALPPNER
In words: ELISA on coated cynomolgus monkey PD-L1/His, anti-human Fc-HRP [B]. As for the experimental part: (§1) The monkey PD-L1/His and murine PD-L1/His were expressed and purified in a similar way to the human PD-L1/His as described earlier. […] The synthesized full length mAb was named as Y1-IgG1mc. The ELISA assay was performed essentially in the same way as described in the previous section. Briefly, 200 ng of PD-L1 protein was coated on each well of Nunc MaxiSorp ELISA plate (Cat. No. 442404, Nunc, Thermo Fisher). After washing and blocking, indicated concentrations of anti-PD-L1 mAbs were added and incubated at room temperature for 1 hour. After washing, the bound anti-PD-L1 mAbs were detected using a HRP-conjugated goat anti-human Fc antibody (Cat. No. A0170, Sigma).
B1: the concentration giving a half-maximal response (EC50 (read off the curve)) is around 0.04 µg/mL.
With B2, the “EC50 (read off the curve)” value is around 0.04 µg/mL.
Consider B3, for which the concentration for a half-maximal effect (EC50 (read off the curve)) was around 0.04 µg/mL.

Another assay has as its target T4, human PD-L1, full length, expressed on …. In words: cell-based or functional assay.
As to B1, the “IL-2 release in HuT78/P3Z: IC50” value came to 0.039 µg/mL, the “IL-2 release in HuT78/P3Z: Max inhibition” value is 99%, the “IL-2 release in HuT78/PD-1: EC50” value was determined as 0.084 µg/mL and the “IL-2 release in HuT78/PD-1: Top line” value is 300 pg/mL.
In the case of B2, the “IL-2 release in HuT78/P3Z: IC50” value came out at 0.045 µg/mL, the “IL-2 release in HuT78/P3Z: Max inhibition” value came out at 99%, the “IL-2 release in HuT78/PD-1: EC50” value is 0.087 µg/mL and the “IL-2 release in HuT78/PD-1: Top line” value was 299 pg/mL.
In the case of B3, the “IL-2 release in HuT78/P3Z: IC50” value turned out to be 0.037 µg/mL, the “IL-2 release in HuT78/P3Z: Max inhibition” value worked out at 99%, the “IL-2 release in HuT78/PD-1: EC50” value was determined as 0.075 µg/mL and the “IL-2 release in HuT78/PD-1: Top line” value turned out to be 287 pg/mL.

For the next assay the target is unchanged. In words: FACS competition with CD80/Fc on HEK293/PD-L1 cells.
B1 displayed a half-maximal inhibitory concentration (IC50) of 0.103 µg/mL and a Max inhibition of 100%.
In turn, B2 gave an IC50 of 0.078 µg/mL and a Max inhibition of 100%.
The corresponding values for B3 are 0.118 µg/mL and 100%.

The target of a further assay is T6, mouse PD-L1/His (mouse (Mus musculus), UniProt Q9EP73 19-239).
T6 construct: extracellular domain; Said to be expressed and purified in a similar way to the human PD-L1/His; also called murine PD-L1/His; murine PD-L1; not shown: His tag
T6 sequence (Q9EP73 19-239): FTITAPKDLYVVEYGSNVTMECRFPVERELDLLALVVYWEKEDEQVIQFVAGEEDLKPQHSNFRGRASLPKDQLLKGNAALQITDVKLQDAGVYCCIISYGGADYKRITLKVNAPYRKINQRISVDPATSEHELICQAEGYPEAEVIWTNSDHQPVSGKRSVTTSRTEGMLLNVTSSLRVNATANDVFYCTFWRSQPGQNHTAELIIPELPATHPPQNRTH
In words: ELISA on coated mouse PD-L1/His, anti-human Fc-HRP [C]. As for the experimental part: as §1
On to B1, for which the binding result is listed as “no binding (tested: 1 µg/ml)”.
On to B2, for which the binding result is on record as “no binding (tested: 1 µg/ml)”.
As to B3, the binding result is listed as “no binding (tested: 1 µg/ml)”.

The target in another assay is T1, human FcγRIIB expressed on HEK293 cells. In words: FACS, monomeric mAb on FcγR-expressing HEK293 cells, goat anti-human IgG F(ab')2-Alexa Fluor 488 detection. As for the experimental part:
(§2) Bindings of humanized anti-PD-L1 in various IgG1 formats (wt, IgG1mc, IgG1mf, SEQ. NO. 27-29) to FcγRs were also determined by flow cytometry. In brief, a series of stable HEK293 transfectants expressing human FcγRs were established. These stable cell lines expressed FcγRI, FcγRIIAH131, FcγRIIAR131, FcγRIIB, FcγRIIIAF158 or FcγRIIIAV158, respectively. Multi-subunit FcγRs (i.e., FcγRI and FcγRIIIA) were co-expressed with FcRγ subunit.
For the molecule B1, the binding result is “no binding”.
As to B2, the binding result is “no binding”.
Still for that read-out and setting: the value for B3 was “no binding”.

In a further assay the target is T7, human FcγRIIIAV158 expressed on cells (human, UniProt P08637 17-254).
T7 construct: whole, on cells; Co-expressed with FcRγ subunit; on HEK293 cells in the FACS assays, on NK92MI/CD16V cells in the ADCC assay; also called CD16 (V158 allele)
T7 sequence (P08637 17-254 F176V limits assumed): as the sequence (P08637 17-254) above, with F160V counted along it
The description is as above. As for the experimental part: as §2
With B1, the binding result is on record as “no binding”.
As to B2, the binding result is “no binding”.
For the molecule B3, the binding result is “no binding”.

The next assay concerns the target T8, human FcγRIIIAF158 expressed on HEK293 cells (human, UniProt P08637 17-254).
T8 construct: whole, on cells; Co-expressed with FcRγ subunit
The assay is described as above. As for the experimental part:
as §2
Turning to B1, the binding result is “no binding”.
As for B2, the binding result is given as “no binding”.
Still for that read-out and setting: as for B3, the entry is “no binding”.

The next assay has as its target T9, human FcγRI expressed on HEK293 cells (human, UniProt P12314 16-374).
T9 construct: whole, on cells; Co-expressed with FcRγ subunit
The description is as above. Here is the method:
as §2
Turning to B1, the binding result is on record as “no binding”.
On to B2, for which the binding result is listed as “no binding”.
On to B3, for which the binding result was “no binding”.

The target of another assay is T2, human FcγRIIAH131 expressed on HEK293 …. The assay is described as above. Here is the method: as §2
As to B1, the binding result is “no binding”.
With B2, the binding result is listed as “no binding”.
In the case of B3, the binding result is reported as “no binding”.

The target of a further assay is T3, human FcγRIIAR131 expressed on HEK293 …. The description is as above. As for the experimental part:
as §2
B1: the binding result is “no binding”.
As to B2, the binding result was “no binding”.
Turning to B3, the binding result is given as “no binding”.
